Our source for the stoichiometry N values is publication PMC6946597.

Test [1] deals with human COA6 isoform 3 (human). Nature of the test: SEC.
For test [2], the target named is human COA6 isoform 3 (human). Description: SEC. This is another data set of the same source.

Like-named read-outs stand apart in the source and are kept apart here.

As for human COA6 isoform 3 (natural protein), the stoichiometry N in test [1] and in test [2] was 2 in each case.
